Results: publication PMC1874592
Residue numbers refer to the chain shown, from its start. In names and notes the source's numbering stands.

B1: SsoRadA (Sulfolobus solfataricus RadA) (Saccharolobus solfataricus P2) (protein)
chain: MSNEVEQKKNIKTINDLPGISQTVINKLIEAGYSSLETLAVASPQDLSVAAGIPLSTAQKIIKEARDALDIRFKTALEVKKERMNVKKISTGSQALDGLLAGGIETRTMTEFFGEFGSGKTQLCHQLSVNVQLPPEKGGLSGKAVYIDTEGTFRWERIENMAKALGLDIDNVMNNIYYIRAINTDHQIAIVDDLQELVSKDPSIKLIVVDSVTSHFRAEYPGRENLAVRQQKLNKHLHQLTRLAEVYDIAVIITNQVMARPDMFYGDPTVAVGGHTLYHVPGIRIQLKKSRGNRRIARVVDAPHLPEGEVVFALTEEGIRDAEE
B2: SsoRadA (Sulfolobus solfataricus RadA) (Saccharolobus solfataricus P2; R83A) (protein)
chain: B1 chain with R83A
B3: SsoRadA (Sulfolobus solfataricus RadA) (Saccharolobus solfataricus P2; F73D) (protein)
chain: B1 chain with F73D
B4: SsoRadA (Sulfolobus solfataricus RadA) (Saccharolobus solfataricus P2; R83E) (protein)
chain: B1 chain with R83E

Substrate: Nc1ncnc2c1ncn2[C@@H]1O[C@H](COP(=O)(O)OP(=O)(O)OP(=O)(O)O)[C@@H](O)[C@H]1O
Experiment: purified protein
Conditions: labelled compound, ΦX174 ssDNA, Mg2+, 65°C

Protein | Km (5.0 μM protein) [µM] | kcat (5.0 μM protein) [s⁻¹] | further results
B1 |  |  | Km (3.0 μM protein): 300 ± 10 µM; kcat (3.0 μM protein): 0.00085 ± 1.7e-05 s⁻¹
B2 |  |  | Km (2.5 μM protein): 210 ± 10 µM; kcat (2.5 μM protein): 0.00152 ± 1.7e-05 s⁻¹
B3 | 490 ± 30 | 0.00085 ± 1.7e-05 | 
B4 | 460 ± 60 | 0.000867 ± 6.7e-05 | 
